# Data: paper PMC2571106 (BMC Microbiology, 2008)
# Legend:
# [1] = biological target: the molecule itself; assay: transmission electron microscopy of self-assembly products (negative stain); 1 mg purified, lyophilised recombinant protein in 1 ml 5 M GHCl, 50 mM Tris-HCl pH 7.2, dialysed against 10 mM CaCl2 in distilled water for 18 h; negative stain with 2,5% uranyl acetate
# [2] = biological target: the molecule itself; assay: transmission electron microscopy of self-assembly products (negative stain); SlpA extracted from L. brevis cells with 2 M GHCl, 1 mg/ml, dialysed against water with 5 mM CaCl2 and then water at +4°C; pelleted self-assembly products in 25 mM Tris-HCl pH 8.0
# [3] = biological target: the molecule itself; assay: precipitation after dialysis from GHCl (self-assembly test); affinity purified protein dissolved in 5 M GHCl at 1 mg/ml, dialysed against PBS for two hours at 4°C, centrifuged 16,000 x g 30 min, precipitate checked by SDS-PAGE
Protein,binding result [3],also measured
"full length recombinant SlpA (SlpA 1-435), S-layer protein of Lactobacillus brevis ATCC 8287 (natural protein, UniProt Q05044 31-465, looked up, numbers count on: the mature protein; Two full length constructs were made: pKTH5198 (C-terminal linker-His6) and pKTH5199 (N-terminal His6-linker); no cleavage is mentioned; also called rSlpA; nontruncated rSlpA; source: E. coli BL21(DE3), purified (His Trap HP in 4 M GHCl or 6 M urea)) KSYATAGAYSTLKTDAATRNVEATGTNALYTKPGTVKGAKVVASKATMAKLASSKKSADYFRAYGVKTTNRGSVYYRVVTMDGKYRGYVYGGKSDTAFAGGIKSAETTTKADMPARTTGFYLTDTSKNTLWTAPKYTQYKASKVSLYGVAKDTKFTVDQAATKTREGSLYYHVTATNGSGISGWIYAGKGFSTTATGTQVLGGLSTDKSVTATNDNSVKIVYRTTDGTQVGSNTWVTSTDGTKAGSKVSDKAADQTALEAYINANKPSGYTVTNPNAADATYGNTVYATVSQAATSKVALKVSGTPVTTALTTADANDKVAANDTTANGSSVAGSTVYAAGTKLAQLTTDLTGEKGQVVTLTAIDTDLEDATFTGTTTYYSDLGKAYHYTYTYNKDSAASSNASTQFGSNVTGTLTATLVMGKSTATANGTTWFN",–,binding result [1]: binds
"wild type SlpA isolated from L. brevis ATCC 8287 cells (natural protein, Lactobacillus brevis ATCC 8287, UniProt Q05044 31-465, looked up, numbers count on: the mature protein; source: extracted from L. brevis ATCC 8287 cells with 2 M GHCl, dialysed) KSYATAGAYSTLKTDAATRNVEATGTNALYTKPGTVKGAKVVASKATMAKLASSKKSADYFRAYGVKTTNRGSVYYRVVTMDGKYRGYVYGGKSDTAFAGGIKSAETTTKADMPARTTGFYLTDTSKNTLWTAPKYTQYKASKVSLYGVAKDTKFTVDQAATKTREGSLYYHVTATNGSGISGWIYAGKGFSTTATGTQVLGGLSTDKSVTATNDNSVKIVYRTTDGTQVGSNTWVTSTDGTKAGSKVSDKAADQTALEAYINANKPSGYTVTNPNAADATYGNTVYATVSQAATSKVALKVSGTPVTTALTTADANDKVAANDTTANGSSVAGSTVYAAGTKLAQLTTDLTGEKGQVVTLTAIDTDLEDATFTGTTTYYSDLGKAYHYTYTYNKDSAASSNASTQFGSNVTGTLTATLVMGKSTATANGTTWFN",–,binding result [2]: binds
"rSlpA_(146-435) (domain or fragment, Lactobacillus brevis ATCC 8287, UniProt Q05044 176-465, looked up, numbers count on: the mature protein; Cloned through an NcoI site; the primer may add residues at the N-terminus (surmise from primer 1602); source: E. coli BL21(DE3), purified (His Trap HP in 4 M GHCl or 6 M urea)) LYGVAKDTKFTVDQAATKTREGSLYYHVTATNGSGISGWIYAGKGFSTTATGTQVLGGLSTDKSVTATNDNSVKIVYRTTDGTQVGSNTWVTSTDGTKAGSKVSDKAADQTALEAYINANKPSGYTVTNPNAADATYGNTVYATVSQAATSKVALKVSGTPVTTALTTADANDKVAANDTTANGSSVAGSTVYAAGTKLAQLTTDLTGEKGQVVTLTAIDTDLEDATFTGTTTYYSDLGKAYHYTYTYNKDSAASSNASTQFGSNVTGTLTATLVMGKSTATANGTTWFN",binds,–
"rSlpA_(179-435) (domain or fragment, Lactobacillus brevis ATCC 8287, UniProt Q05044 209-465, looked up, numbers count on: the mature protein; also called rSlpA C-terminal domain; source: E. coli BL21(DE3), purified (His Trap HP in 4 M GHCl or 6 M urea)) SGISGWIYAGKGFSTTATGTQVLGGLSTDKSVTATNDNSVKIVYRTTDGTQVGSNTWVTSTDGTKAGSKVSDKAADQTALEAYINANKPSGYTVTNPNAADATYGNTVYATVSQAATSKVALKVSGTPVTTALTTADANDKVAANDTTANGSSVAGSTVYAAGTKLAQLTTDLTGEKGQVVTLTAIDTDLEDATFTGTTTYYSDLGKAYHYTYTYNKDSAASSNASTQFGSNVTGTLTATLVMGKSTATANGTTWFN",binds,–
